B1: A20-36.1 (antibody, V domains shown)
VH: QVQLVESGGGVVQPGRSLRLSCAASGFIFSSYGVHWVRQAPGKGLEWVAVIWHDESNKDYADSVKGRFTISRDNSKNTVYLQMNSLRAEDTAMYYCARDGYDFLTGAYELDYWGQGTLVTVSS
VL: SYELTQPPSVSVSPGQTARITCSGDALPKQYAYWYQQKPGQAPVVVIYKDSERPSGIPERFSGSSSGTTVTLTISGVQAEDEADYYCQSADSSGTWVFGGGTKLTVL
B2: A20-9.1 (antibody, V domains shown)
VH: QVQLVESGGGVVQPGRSLRLSCAASGFTFSSYGMHWVRQAPGKGLEWVAFISYDGSNKYYADSVKGRFTISRDNSKNTLYLQMNSLRAEDTAVYYCAKDYWSVAAGTSWFDPWGQGTLVSVSS
VL: B1 VL
B3: A23-80.1 (antibody, V domains shown)
VH: QVQLVQSGAEVKKPGASVKVSCKASGYTFTSNGVTWVRQAPGQGLEWMGWISTYNGDTNYAQKLQGRVSMTTDTSTRTVYMELRSLRSDDTAVYYCARVGDAYCSGGSCYHFDYWGQGTLVTVSS
VL: EIVMTQSPATLSVSPGERATLSCRASQSVSTNLAWYQQKPGQAPRLLIYGASTRATGIPARFSGSGSGTEFTLTISSLQSEDFALYYCQQYDNWPPEFTFGPGTKVDIK
B4: A23-113.1 (antibody, V domains shown)
VH: QVHLEESGGAVVQPGRSLRLSCAASGFTFSSYGMHWVRQAPGKGLEWVAVISHDGSYKYYADSVKGRFTISRDNSKDTLYLQTNSLRAEDTAMYYCAKSYGYWMAYFDYWGQGTLVTVSS
VL: DIQMTQSPSSLSASVGDRVTITCRASQDISNYLAWYQQKPGKVPKLLIYAASTLQSGVPSRFSGSGSGTDFTLTISSLQPEDVATYYCQKYNSPWHTFGGGTKVEIK
B5: A23-105.1 (antibody, V domains shown)
VH: QVQLVESGGGVVQPGRSLRLSCAASGFTFSNYAIHWVRQAPGKGLEWVAVISYDGSNKYYADSVKGRFTISRDNSKNTLYLEMNSLRAEDMAVYYCARVGPYQYDSSAAFDIWGQGTMVTVSS
VL: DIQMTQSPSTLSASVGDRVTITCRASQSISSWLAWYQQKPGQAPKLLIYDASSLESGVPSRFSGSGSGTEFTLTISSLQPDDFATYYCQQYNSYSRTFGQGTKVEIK
B6: A19-1.1 (antibody, V domains shown)
VH: QVQLVESGGGVVQPGRSLRLSCAASGFTFTNYAMHWVRQAPGKGLEWVAVISNDGSDKYYADSVKGRFTISRDNSKSTVYLQMSSLRPEDTAVYFCARDPPQVHWSLDYWGQGTLVTVSS
VL: QSALTQPPSASGSPGQSVTISCTGTSSDVGDYNYVSWYQHHPGKAPKLIIYDVSKRPSGVPDRFSGSKSGDTASLTVSGLQAEDEADYYCSSYAGNNNAVFGTGTKVTVL
B7: A19-61.1 (antibody, V domains shown)
VH: QVQLVESGGGVVQPGRSLRLSCAASGFTFSSYAFHWVRQAPGKGLEWVAVISYDGSNQYYADSVKGRFTISRDNSKNTLYLQMNSLRADDTAVYYCARDLAIAVAGTWHYYNGMDVWGQGTTVTVSS
VL: DIQMTQSPSSVSASVGDRVIITCRASQGISSWLAWYQQKPGKAPKVLIYDASSLQSGVPSRFSGSGYGTDFTLTISSLQPEDSATYYCQQAKSFPITFGQGTRLEIK
B8: A23-97.1 (antibody, V domains shown)
VH: QVQLVESGGGVVQPGGSLRLSCAASGFTFSSFGMHWVRQAPGKGLEWVAFIRYDGSNKYYADSVKGRFTISRDNSKNTLYLQMNSLRAEDTAVYYCAKTELYYYDSSGPLGWGQGTLVTVSS
VL: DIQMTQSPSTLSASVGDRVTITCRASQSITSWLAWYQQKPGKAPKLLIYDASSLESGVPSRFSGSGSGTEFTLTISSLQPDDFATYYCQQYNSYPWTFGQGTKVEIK
B9: A19-30.1 (antibody, V domains shown)
VH: QVQLVESGGGVVQPGRSLRLSCAASGFTFSNYGMHWVRQAPGKGLEWLAVISYDGSNKYYADSVKGRFTISRDNSKNTLFLQMNSLRAEDTAVYYCAKESQFGELFEALDYWGQGTLVTVSS
VL: SYELTQPPSVSVSPGQTARITCSGDALPRKYAFWYQQKSGQAPVLVISEDSKRPSGIPERFSGSSSGTMATLTISGAQVEDEADYYCYSTDSSGNHRVFGGGTKLTVL
B10: A19-82.1 (antibody, V domains shown)
VH: QVQLVESGGGVVQPGRSLRLSCVVSGLIFSTYDMHWVRQAPGKGLEWVAVISYDGSYKHYADSVKGRFTISRDSSKNTLYLQMNSLRPEDTAVYYCAKGEGVVAGTGKFDYWGQGTLVTVSS
VL: SYVLTQPPSVSVAPGQTARITCGGNNIGSKSVHWYQQKPGQAPVLVVYDDSDRPSGIPERFSGSNSGNTATLTISRVEAGDEADYYCQVWDGSGDPWVFGGGTKLTVL
B11: A19-46.1 (antibody, V domains shown)
VH: QVQLVESGGGVVQPGRSLRLSCAASGFTLSSYGMHWVRQAPGKGLEWVAVISYDGSNKYYVDSVKGRFTISRDNSKNTLYLQMNSLRAEDTAVYYCARGWAYWELLPDYYYGMDVWGQGTTVTVSS
VL: QTVVTQEPSFSVSPGGTVTLTCGLSSGSVSTAYFPSWYQQTPGQAPRTLIYGTNTRSSGVPDRFSGSILGNKAALTITGAQADDESDYYCVLYMGRGIVVFGGGTKLTVL
B12: A20-29.1 (antibody, V domains shown)
VH: EVQLVESGGGLVQPGRSLRLSCAASGFTFDDYAMHWVRQTPGKGLEWVSGISWNSGDIDYADSVKGRFTISRDNAKNSLYLQMNSLRTEDTALYYCTKGWFGEFFGAGSICDYWGQGTLVTVSS
VL: EIVMTQSPATLSVSPGERATLSCRASQSVSNNLAWYQQKPGQAPRLLIYGASTRATGIPARFSGSGSGTEFTLTISSLQSEDFAVYYCQQYNNWPLFGQGTKVEIK

Key:
SARS-CoV-2 RBD = SARS-CoV-2 RBD (SARS-CoV-2, UniProt P0DTC2 319-541); assay: ELISA
SARS-CoV-2 NTD = SARS-CoV-2 NTD (SARS-CoV-2, UniProt P0DTC2 14-305); assay: ELISA
[1] = biological target: full-length SARS-CoV-2 spike, WA-1 / Wuhan-1 (S wt) (SARS-CoV-2, UniProt P0DTC2 14-1273); assay: cell-based or functional assay
SARS-CoV-2 S1 = biological target: T1, SARS-CoV-2 S1 (SARS-CoV-2, UniProt P0DTC2 14-681); assay: ELISA
T1 construct: range 1-681

Row | Binder | binding result (SARS-CoV-2 RBD) | binding result (SARS-CoV-2 NTD) | pseudotyped virus neutralization IC50 [1] | pseudotyped virus neutralization IC80 [1] | binding result (SARS-CoV-2 S1)
1 | B1 | no binding | no binding | 1.39 µg/mL | 3.76 µg/mL | –
2 | B2 | no binding | no binding | 1.21 µg/mL | – | –
3 | B3 | – | no binding | 0.321 µg/mL | – | –
4 | B4 | – | no binding | 0.393 µg/mL | 7.81 µg/mL | –
5 | B5 | – | no binding | 0.0889 µg/mL | 0.228 µg/mL | –
6 | B6 | – | no binding | 0.126 µg/mL | 0.53 µg/mL | –
7 | B7 | – | no binding | 0.0709 µg/mL | 0.163 µg/mL | –
8 | B8 | – | no binding | 0.484 µg/mL | 5.28 µg/mL | –
9 | B9 | binds | no binding | – | – | binds
10 | B10 | – | no binding | 0.72 µg/mL | 5.93 µg/mL | –
11 | B11 | – | – | 0.0398 µg/mL | 0.129 µg/mL | –
12 | B12 | – | – | 0.348 µg/mL | 1.36 µg/mL | –
